Data taken from article PMC7367191, “Intrinsic disorder is essential for Cas9 inhibition of anti-CRISPR AcrIIA5”.

Target: Cas9;AcrIIA5 (Streptococcus pyogenes;virulent phage …, UniProt Q99ZW2;A0A220GHA5 1-1368;1-140, |)
Assay: EMSA; 5 mM Mg2+; AcrIIA5 0.4-4 uM supershifts Cas9-sgRNA 0.2 uM; EMSA: 20 mM Tris-HCl pH 7.5, 150 mM KCl, 5 mM MgCl2, 1 mM DTT, 5% glycerol, 25 C, 40 min; sgRNA 200 nM, Cas9 400 nM; 6% PAGE, SYBR Gold
Details: protein: recombinant;recombinant; tags: N-terminal His6 (pET28); copies: 1;1; single strand, guide plus sgRNA scaffold hairpins

B1: Cas9 sgRNA (structured_RNA)
RNA: GGAAAUUAGGUGCGCUUGGCGUUUUAGAGCUAGAAAUAGCAAGUUAAAAUAAGGCUAGUCCGUUAUCAACUUGAAAAAGUGGCACCGAGUCGGUGCUU
**Q.** Does B1 bind?
**A.** Result: binds
